These results are taken from publication PMC9044032, “OsbZIP47 Is an Integrator for Meristem Regulators During Rice Plant Growth and Development” (Frontiers in Plant Science, 2022).

In data set [1] the target is T1, Trx-His-OsbZIP47 FL (Oryza sativa) (UniProt Q5Z6N9).
T1 sequence: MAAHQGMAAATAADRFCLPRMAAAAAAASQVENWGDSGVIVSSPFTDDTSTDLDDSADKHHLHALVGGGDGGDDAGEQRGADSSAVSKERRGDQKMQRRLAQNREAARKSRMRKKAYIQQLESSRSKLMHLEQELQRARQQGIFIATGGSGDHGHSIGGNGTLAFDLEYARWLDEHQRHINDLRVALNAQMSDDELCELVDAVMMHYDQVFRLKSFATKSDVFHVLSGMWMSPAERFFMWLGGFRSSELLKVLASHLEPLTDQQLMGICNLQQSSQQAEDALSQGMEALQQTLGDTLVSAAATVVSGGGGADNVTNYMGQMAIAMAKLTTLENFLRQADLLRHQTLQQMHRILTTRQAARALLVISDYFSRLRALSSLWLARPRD
Kind of data set: MST. The conditions noted are these: MST: 10 mM HEPES-KOH pH 8.0, 50 mM NaCl, 0.5% Tween-20, 0.5 mM EDTA, 1 mM MgCl2, 10% glycerol, 80 nM protein, DNA 3.05 nM-100 uM, temperature not stated, EMSA: …. (In general: In EMSA bound probe runs differently from free probe, usually more slowly.)

Data set [2] concerns the molecule itself. Kind of data set: non-reducing SDS-PAGE; purified protein treated with 2 mM diamide, with 20 mM DTT, or with 2 mM diamide followed by 20 mM DTT; non-reducing 10% SDS-PAGE.

One may read the Kd as the equilibrium constant for the complex coming apart. Low readings indicate tighter binding, high ones weaker binding. As to “CAGCTGGCCCTGACGTCAGCAACCGG (double strand) [OsFCP1 locus EMSA-371]”, the Kd in data set [1] (oxidized, 1 mM oxidized glutathione) is 2160 nM; in data set [1] (reduced, 20 mM DTT) it was 815 nM.

B1: Thioredoxin-His-tagged OsbZIP47FL (natural protein, rice (Oryza sativa), UniProt Q5Z6N9 1-385, looked up)
chain: MAAHQGMAAATAADRFCLPRMAAAAAAASQVENWGDSGVIVSSPFTDDTSTDLDDSADKHHLHALVGGGDGGDDAGEQRGADSSAVSKERRGDQKMQRRLAQNREAARKSRMRKKAYIQQLESSRSKLMHLEQELQRARQQGIFIATGGSGDHGHSIGGNGTLAFDLEYARWLDEHQRHINDLRVALNAQMSDDELCELVDAVMMHYDQVFRLKSFATKSDVFHVLSGMWMSPAERFFMWLGGFRSSELLKVLASHLEPLTDQQLMGICNLQQSSQQAEDALSQGMEALQQTLGDTLVSAAATVVSGGGGADNVTNYMGQMAIAMAKLTTLENFLRQADLLRHQTLQQMHRILTTRQAARALLVISDYFSRLRALSSLWLARPRD
notes: full-length CDS, amino acid 1 to 385; also called Trx-His-OsbZIP47 FL; Trx-His OsbZIP47; source: E. coli Rosetta (DE3), pET32a, purified
Regarding B1, the binding result in data set [2] was “binds”.
